# Assay results: publication PMC9505750
# B1: full-length wild-type APOBEC3G, Q9HC16 1-384 (enzyme)
# chain: MKPHFRNTVERMYRDTFSYNFYNRPILSRRNTVWLCYEVKTKGPSRPPLDAKIFRGQVYSELKYHPEMRFFHWFSKWRKLHRDQEYEVTWYISWSPCTKCTRDMATFLAEDPKVTLTIFVARLYYFWDPDYQEALRSLCQKRDGPRATMKIMNYDEFQHCWSKFVYSQRELFEPWNNLPKYYILLHIMLGEILRHSMDPPTFTFNFNNEPWVRGRHETYLCYEVERMHNDTWVLLNQRRGFLCNQAPHKHGFLEGRHAELCFLDVIPFWKLDLDQDYRVTCFTSWSPCFSCAQEMAKFISKNKHVSLCIFTARIYDDQGRCQEGLRTLAEAGAKISIMTYSEFKHCWDTFVDHQGCPFQPWDGLDEHSQDLSGRLRAILQNQEN
# Tests used:
# Conditions in all cases: remark: other sources report otherwise
# [1] = target: full-length wild-type APOBEC3G (human), Q9HC16; experiment: SEC-SAXS; A3Gfl 2.5 mg/mL with the 40-mer ssDNA CCdZ-T30-oligo at a 1 to 2 molar ratio; SEC-SAXS, 25 °C, 50 mM phosphate pH 6.0, 200 mM NaCl, 2 mM β-ME, 5% glycerol, 200 µM Na2-EDTA; Gaussian decomposition
# [2] = target: full-length wild-type APOBEC3G (human), Q9HC16; experiment: SEC-SAXS; ligand-free A3Gfl; SEC (Superdex 200 Increase 5/150 GL) with co-flow SAXS, 25 °C, 2.5 mg/mL A3Gfl loaded (about 1.3 mg/mL after SEC), 50 mM phosphate pH 6.0, 200 mM NaCl, 2 mM β-ME, 5% glycerol, 200 µM Na2-EDTA; species separated by SVD/EFA and Gaussian decomposition
# [3] = target: full-length wild-type APOBEC3G (human), Q9HC16; experiment: as above; remark: listed apart in the source
binder,measurement,setting,value
B1,stoichiometry N,[1],4
same,stoichiometry N,[2],4
same,stoichiometry N,[3],2
